Results on 1 sequence are retold here after US7763708B2, “Methods and compositions for modulating C5-a-mediated inflammatory responses” (Institute for Protein Science Co., Ltd., priority 2004, dated 2010).

Entries after “also recorded” stand apart in the source; their conditions may differ.

Assay [1] concerns the target T1, C5a (Homo sapiens, UniProt P01031).
T1 sequence (P01031 678-751 limits assumed): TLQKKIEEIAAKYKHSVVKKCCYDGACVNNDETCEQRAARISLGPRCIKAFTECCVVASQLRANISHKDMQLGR
In words: Surface plasmon resonance (Biacore) binding of C-peptides to immobilized C5a. Further details: Complement anaphylatoxin C5a is a 74-amino acid peptide generated from the fifth component of complement (C5). Particulars: PBS, 25° C., 10 μl/min, EA-blocked cell subtracted. The protocol:
(§1) Binding interactions between PL37 or C5a with C-peptides were evaluated using surface plasmon resonance (SPR) technology with the Biacore system. PL37 and C5a were covalently immobilized on the CM5 sensor chip by amine coupling methods using N-ethyl-N-(dimethylaminopropyl)carbodiimide/N-hydroxysuccinimide (EDC/NHS) according to the manufacturer's instructions. We activated the surface of the CM5 sensor chip with EDC/NHS for 20 min before injection with PL37-MAP (200 μg/ml in 10 mM sodium carbonate buffer, pH 8.5, over flow cell 2) or C5a (100 μg/ml in 10 mM acetate buffer, pH 5, over flow cell 3). Afterwards, excess NHS was deactivated for 20 min with 1 M ethanolamine hydrochloride (EA), pH 8.5. The reference flow cell was activated with EDC/NHS, and blocked with EA. Coupling was performed at a flow rate of 5 μl/min at 25° C. in PBS. Analyte (30 μl of C-peptide A or B) was injected at 10 μl/min at 25° C. in PBS. Binding interactions were determined by passing samples simultaneously over both the EA-blocked cell and the flow cell with immobilized PL37 or C5a so as to obtain units of resonance response (RU) by subtraction of the background using Biacore software (BIA evaluation).
Binding of C-peptides to C5a was also examined. C5a was covalently coupled to a CM5 sensor chip resulting in a net increase of 5,770 RU. […]
Background: In SPR one partner is held on a chip, and binding of the other changes the refractive index at the surface.

The subject of assay [2] is TGW human neuroblastoma cells bearing C5aR. Nature of the assay: Patch clamp measurement of inward ion current pulses induced by PL37-MAP. It is filed as cell-based. Particulars: 500 nM PL37-MAP, 50 μM C-peptide. The protocol: The measurements were carried out on TGW human neuroblastoma cells bearing C5aR. Cells were voltage-clamped at room temperature at a holding potential of −70 mV using a whole cell clamp configuration. The instruments used for electrophysiology were as follows: an Axopatch 200-A patch clamp amplifier, a Digidata-1200 data acquisition system and pCLAMP 6.02 software from Axon Instruments Inc., (Foster City, Calif.). The head stage of the amplifier was fitted to an MHW-3 hydraulic manipulator manufactured by Narishige Inc. (Tokyo, Japan); and the cells were visualized using an Olympus IMT-2 invert microscope. Data acquisition and analysis were performed using an IBM compatible personal computer. Patch electrodes (OD=1.5 mm, thin wall, Garner Glass Co., Claremont, Calif.) were pulled with a PP-83 puller and polished with an MF-83 microforge (Narishige Inc). The resistance of patch electrodes was 8-10 MΩ. The solutions used were as follows: an extracellular solution (10 mM Hepes, 140 mM NaCl, 5 mM KCI, 2 mM CaCl2, 2 mM MgCl2, 10 mM glucose, pH=7.34) and an intracellular pipette solution (10 mM Hepes, 110 mM KCl, 15 mM NaCl, 0.1 mM CaCl2, 2 mM MgCl2, 1 mM EGTA, pH 7.25). […]
Inward calcium current pulses detected by a patch clamp assay were evoked when TGW cells were exposed to 500 nM PL37-MAP (FIG. 2a). […]
(In patch-clamp work, channel activity is measured electrically.)

The target in assay [3] is PL37-MAP (Homo sapiens, UniProt P01031). Nature of the assay: Surface plasmon resonance (Biacore) binding of C-peptides to immobilized PL37-MAP. The note with it: PBS, 25° C., 10 μl/min, EA-blocked cell subtracted. The protocol: as §1
The Biacore instrument which uses SPR technology measures association and dissociation in real time of an unlabeled analyte with an immobilized ligand. […]

For ASTAPARAGLPRLPKFF [Pep-B], the “Binding to C5a-coupled flow cell” value in assay [1] is recorded as “did not”. The “Inhibition of inward ion current pulse evoked by PL37-MAP” value in assay [2] is “did not have any effect; also recorded: did not block”. Moreover, in assay [3], the “Binding to PL37-MAP-coupled flow cell” value is on record as “did not”.
